The target of this experiment is T1, HLA-DR1 (DR1αβ; DRA and DRB1*0101) on cells (human).
T1 construct: whole, on cells
The experiment in a line: flow cytometry on human MHC class II expressing cells. (In general: In flow cytometry, cells or beads pass a laser one at a time.)

B1: Staphylococcal enterotoxin A (SEA), wild type (ligand)
chain: SEKSEEINEKDLRKKSELQGTALGNLKQIYYYNEKAKTENKESHDQFLQHTILFKGFFTDHSWYNDLLVDFDSKDIVDKYKGKKVDLYGAYYGYQCAGGTPNKTACMYGGVTLHDNNRLTEEKKVPINLWLDGKQNTVPLETVKTNKKNVTVQELDLQARRYLQEKYNLYNSDVFDGKVQRGLIVFHTSTEPSVNYDLFGAQGQYSNTLLRIYRDNKTINSENMHIDIYLYTS
Consider B1, for which the binding result is “binds”.

For the origin of these results see patent publication EP1105154B1 (Walter Reed Army Institute of Research, dated 2016).
